Experimental data published in patent publication US20250262316A1 (BIO THERA SOLUTIONS, published 2025).

Experiments:
[1] = biological target: T1, antigen hB7-H3-His (human, UniProt Q5ZPR3 29-461); assay: ELISA, antigen coated at 2 µg/mL, anti-human kappa light chain HRP detection
T1 construct: residues 1-28 are left out on that ground
T1 sequence: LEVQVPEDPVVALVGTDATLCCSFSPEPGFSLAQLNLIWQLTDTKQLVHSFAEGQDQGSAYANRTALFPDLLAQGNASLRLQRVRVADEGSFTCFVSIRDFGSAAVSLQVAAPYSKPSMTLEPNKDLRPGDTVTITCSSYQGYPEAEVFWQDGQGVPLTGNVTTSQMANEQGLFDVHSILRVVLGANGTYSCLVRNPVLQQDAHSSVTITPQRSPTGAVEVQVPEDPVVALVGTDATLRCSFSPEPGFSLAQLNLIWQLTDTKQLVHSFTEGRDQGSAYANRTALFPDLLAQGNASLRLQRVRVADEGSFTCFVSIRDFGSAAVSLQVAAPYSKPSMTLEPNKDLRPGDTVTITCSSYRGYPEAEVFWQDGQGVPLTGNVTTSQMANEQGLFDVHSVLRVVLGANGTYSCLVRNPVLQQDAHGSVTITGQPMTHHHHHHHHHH

[2] = biological target: T2, cynomolgus monkey B7-H3 (novoprotein CA61) (cynomolgus monkey); assay: as above
T2 construct: Bought protein

[3] = biological target: T3, B7-H3 on MDA-MB-468 cells (human, UniProt Q5ZPR3); assay: flow cytometry on MDA-MB-468 cells; blank V2-R 0.9%
T3 construct: endogenous, on the cell surface
T3 sequence (cell surface antigen, looked up): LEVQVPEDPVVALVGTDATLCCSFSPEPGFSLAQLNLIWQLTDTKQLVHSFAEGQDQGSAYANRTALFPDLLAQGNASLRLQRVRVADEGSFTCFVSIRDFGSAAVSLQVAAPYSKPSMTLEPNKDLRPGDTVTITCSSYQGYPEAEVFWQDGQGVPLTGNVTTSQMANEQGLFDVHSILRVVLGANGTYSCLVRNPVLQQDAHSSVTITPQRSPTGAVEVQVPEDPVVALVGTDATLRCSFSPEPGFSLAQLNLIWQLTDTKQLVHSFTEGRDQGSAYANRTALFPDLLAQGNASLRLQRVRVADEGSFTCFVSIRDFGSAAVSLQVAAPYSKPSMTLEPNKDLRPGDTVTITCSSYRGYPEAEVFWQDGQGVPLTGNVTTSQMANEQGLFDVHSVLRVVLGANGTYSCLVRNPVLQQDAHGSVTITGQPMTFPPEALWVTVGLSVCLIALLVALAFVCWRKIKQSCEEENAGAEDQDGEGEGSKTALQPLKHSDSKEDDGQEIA

[4] = biological target: T1, antigen hB7-H3-His; assay: SPR, BiaCore T200, ADC or antibody captured on Protein A chip, hB7-H3-His as analyte, 1:1 model; naked Antibody V3, not conjugated
[5] = biological target: T4, VISTA (NCBI Reference Sequence: NP_071436.1) on VISTA-CHO cells (UniProt Q9H7M9 33-311, limits assumed); assay: flow cytometry on VISTA-CHO cells
T4 construct: whole, on cells

[6] = biological target: T1, antigen hB7-H3-His; assay: SPR, BiaCore T200, ADC or antibody captured on Protein A chip, hB7-H3-His as analyte, 1:1 model
[7] = biological target: T5, Lag3 (NCBI Reference Sequence: NP_002277.4) on Lag3-CHO cells (UniProt P18627 23-525, limits assumed); assay: flow cytometry on Lag3-CHO cells
T5 construct: whole, on cells
T5 sequence (looked up): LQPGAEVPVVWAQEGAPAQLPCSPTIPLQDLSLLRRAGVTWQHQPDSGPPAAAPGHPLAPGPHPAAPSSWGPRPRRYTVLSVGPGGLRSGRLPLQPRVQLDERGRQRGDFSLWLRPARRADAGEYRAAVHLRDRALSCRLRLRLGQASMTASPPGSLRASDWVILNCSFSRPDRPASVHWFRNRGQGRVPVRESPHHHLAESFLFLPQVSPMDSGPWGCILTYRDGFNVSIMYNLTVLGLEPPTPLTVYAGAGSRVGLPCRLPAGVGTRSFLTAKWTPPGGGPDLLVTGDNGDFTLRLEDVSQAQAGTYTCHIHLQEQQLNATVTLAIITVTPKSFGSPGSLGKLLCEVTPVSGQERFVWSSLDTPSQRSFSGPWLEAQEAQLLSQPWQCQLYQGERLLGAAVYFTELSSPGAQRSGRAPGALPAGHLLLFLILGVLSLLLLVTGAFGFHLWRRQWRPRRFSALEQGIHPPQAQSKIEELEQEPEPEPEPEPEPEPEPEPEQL

[8] = biological target: T5, Lag3 (NCBI Reference Sequence: …); assay: flow cytometry on Lag3-CHO cells; blank P3 0.5%; the filing says V1-V5 did not bind
[9] = biological target: T6, Tim3 (NCBI Reference Sequence: NP_116171.3) on Tim3-CHO cells (UniProt Q8TDQ0 22-301, limits assumed); assay: flow cytometry on Tim3-CHO cells
T6 construct: whole, on cells

[10] = biological target: T7, mouse B7-H3 (SinoBiological, 50973-M08H) (mouse, UniProt Q8VE98 29-244); assay: ELISA, antigen coated at 2 µg/mL, Antibody V3 in 2-fold dilutions (EC50 cell in Table 12: NA)
T7 construct: Bought protein
T7 sequence (looked up): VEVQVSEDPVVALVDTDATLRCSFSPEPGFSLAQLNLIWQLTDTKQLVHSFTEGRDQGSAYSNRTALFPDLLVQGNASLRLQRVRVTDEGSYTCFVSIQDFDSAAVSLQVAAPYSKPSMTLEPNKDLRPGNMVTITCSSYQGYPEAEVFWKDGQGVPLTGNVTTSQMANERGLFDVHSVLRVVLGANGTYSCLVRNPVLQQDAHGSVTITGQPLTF

[11] = biological target: T8, hB7-H3-Fc; assay: ELISA on coated hB7-H3-Fc (2 ug/mL), HRP anti-human kappa secondary, A450, antibody from 300 nM in 3-fold dilutions; axis 'Concentration' has no unit, nM from p-1066
T8 construct: also called antigen hB7-H3-Fc

[12] = biological target: T6, Tim3 (NCBI Reference Sequence: …); assay: flow cytometry on Tim3-CHO cells; blank P3 0.2%; the filing says V1-V5 did not bind
[13] = biological target: T4, VISTA (NCBI Reference Sequence: …); assay: flow cytometry on VISTA-CHO cells; blank P3 0.1%; the filing says V1-V5 did not bind

T8 sequence (fusion chain, as listed by the source limits assumed): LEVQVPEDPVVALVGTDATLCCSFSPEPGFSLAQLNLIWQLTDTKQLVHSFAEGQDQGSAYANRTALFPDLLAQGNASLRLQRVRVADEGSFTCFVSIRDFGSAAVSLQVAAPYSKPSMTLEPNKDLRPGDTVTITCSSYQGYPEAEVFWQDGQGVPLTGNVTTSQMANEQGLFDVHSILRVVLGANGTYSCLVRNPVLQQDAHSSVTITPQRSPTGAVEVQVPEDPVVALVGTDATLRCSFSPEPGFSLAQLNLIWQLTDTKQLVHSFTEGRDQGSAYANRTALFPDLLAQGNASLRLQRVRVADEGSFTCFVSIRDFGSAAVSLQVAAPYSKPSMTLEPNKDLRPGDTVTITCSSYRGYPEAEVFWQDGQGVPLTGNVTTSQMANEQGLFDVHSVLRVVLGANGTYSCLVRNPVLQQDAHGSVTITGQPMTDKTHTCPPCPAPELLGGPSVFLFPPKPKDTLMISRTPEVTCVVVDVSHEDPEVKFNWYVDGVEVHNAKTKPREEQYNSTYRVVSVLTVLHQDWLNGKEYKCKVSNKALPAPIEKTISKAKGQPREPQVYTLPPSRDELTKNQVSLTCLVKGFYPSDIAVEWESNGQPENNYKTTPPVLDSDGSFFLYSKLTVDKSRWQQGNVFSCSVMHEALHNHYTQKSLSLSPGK

B1: Antibody V3 (antibody, human IgG1, kappa, V domains shown)
VH: EVQLVQSGAEVKKSGESLKISCKASGYTFTDYDINWVRQMPGKGLEWIGWIFPGDDTTKYNEKFKGQVTLSADKSTNTAYMQWSSLKASDTAMYYCARSPSFDYWGQGTLVTVSS
VL: QIVLTQSPGTLSLSPGERATLSCSASSTIGFMYWYQQKPGQAPRRWIYDTSKLASGVPDRFSGSGSGTDYTLTISRLEPEDFAVYYCHQRSSYPTFGQGTKVEIKR
notes: Humanized from chimeric antibody M1; also called humanized antibody V3
With B1 the EC50 [1] was 0.042 µg/mL, the EC50 [2] was 0.042 µg/mL and the “% of cells in gate V1-R at 0.411 nM” value [3] was 36.8%. For the same binder, the “% of cells in gate V1-R at 1.23 nM” value [3] was 86.4%, the “% of cells in gate V1-R at 3.7 nM” value [3] was 94% and the “% of cells in gate V1-R at 11.11 nM” value [3] was 97.2%. For the same binder, the “% of cells in gate V1-R at 33.33 nM” value [3] was 98.9%, the “% of cells in gate V1-R at 100 nM” value [3] was 99.6% and the Kd [4] was 0.175 nM. The binding result [5] was “no binding (tested: 100 nM)”, the koff [6] was 0.000155 s⁻¹ and the kon [6] was 886000 M⁻¹ s⁻¹. The binding result [7] was “no binding (tested: 100 nM)”, the “% of cells in gate P3 at 100 nM” value [8] was 0.6% and the binding result [9] was “no binding (tested: 100 nM)”. For the same binder, the binding result [10] was “no binding (tested: initial concentration of 2 µg/mL)”, the EC50 [11] was 1.77 nM and the “% of cells in gate P3 at 100 nM” value [12] was 0.4%. The “% of cells in gate P3 at 100 nM” value [13] was 0.7%.
